Data reported in article PMC2613638 (The Journal of Biological Chemistry, 2009).
“And” between values parts separate entries of the source, which are not always exact repeats. Identical values can stand only once.

B1: prochemerin: recombinant full-length prochemerin with carboxyl-terminal His6 tag, expressed in insect cells (protein, UniProt Q99969 21-163, looked up)
pro-form: ELTEAQRRGLQVALEEFHKHPPVQWAFQETSVESAVDTPFPAGIFVRLEFKLQQTSCRKRDWKKPECKVRPNGRKRKCLACIKLGSEDKVLGRLVHCPIETQVLREAEEHQETQCLRVQRAGEDPHSFYFPGQFAFSKALPRS
modifications: pro-form C-terminal His6 tag

Legend:
Elastase = conditions: cited from earlier work
Staphopain B = conditions: cited from earlier work
Cathepsin G = conditions: cited from earlier work
plasmin = assay: plasmin; conditions: human
Tryptase = conditions: cited from earlier work
CPB (TAFIa) = molecular target: T1, CPB (TAFIa) (Homo sapiens, UniProt Q96IY4); conditions: CPB cleavage of comparison peptides; cited from earlier work
T1 sequence (Q96IY4 115-423): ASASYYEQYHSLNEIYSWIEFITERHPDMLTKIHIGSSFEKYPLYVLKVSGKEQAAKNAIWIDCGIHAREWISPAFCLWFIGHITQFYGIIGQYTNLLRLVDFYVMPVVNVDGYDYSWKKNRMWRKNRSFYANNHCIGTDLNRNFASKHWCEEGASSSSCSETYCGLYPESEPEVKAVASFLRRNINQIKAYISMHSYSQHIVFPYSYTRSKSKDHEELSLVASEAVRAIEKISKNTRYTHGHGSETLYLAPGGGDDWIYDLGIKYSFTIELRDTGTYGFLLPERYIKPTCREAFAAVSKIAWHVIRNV

CPN = molecular target: T2, CPN (Homo sapiens, UniProt P15169); conditions: CPN cleavage of comparison peptides; cited from earlier work
T2 sequence (P15169 21-458): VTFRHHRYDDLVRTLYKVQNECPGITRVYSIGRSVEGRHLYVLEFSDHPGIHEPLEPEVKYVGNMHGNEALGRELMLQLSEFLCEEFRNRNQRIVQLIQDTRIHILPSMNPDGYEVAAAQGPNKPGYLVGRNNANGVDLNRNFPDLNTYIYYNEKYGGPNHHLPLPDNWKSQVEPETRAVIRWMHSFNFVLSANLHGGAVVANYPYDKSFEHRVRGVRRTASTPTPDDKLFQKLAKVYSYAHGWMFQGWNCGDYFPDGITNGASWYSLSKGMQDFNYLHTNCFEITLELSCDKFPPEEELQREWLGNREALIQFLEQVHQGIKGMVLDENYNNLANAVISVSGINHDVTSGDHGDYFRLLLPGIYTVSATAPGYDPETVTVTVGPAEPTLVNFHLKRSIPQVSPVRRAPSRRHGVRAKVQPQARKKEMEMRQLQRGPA

human CMKLR1 = molecular target: T3, human CMKLR1 (Homo sapiens, UniProt Q99788); assay: In vitro transwell chemotaxis of CMKLR1/L1.2 transfectants; assay type: cell-based
T3 sequence (Q99788 1-373): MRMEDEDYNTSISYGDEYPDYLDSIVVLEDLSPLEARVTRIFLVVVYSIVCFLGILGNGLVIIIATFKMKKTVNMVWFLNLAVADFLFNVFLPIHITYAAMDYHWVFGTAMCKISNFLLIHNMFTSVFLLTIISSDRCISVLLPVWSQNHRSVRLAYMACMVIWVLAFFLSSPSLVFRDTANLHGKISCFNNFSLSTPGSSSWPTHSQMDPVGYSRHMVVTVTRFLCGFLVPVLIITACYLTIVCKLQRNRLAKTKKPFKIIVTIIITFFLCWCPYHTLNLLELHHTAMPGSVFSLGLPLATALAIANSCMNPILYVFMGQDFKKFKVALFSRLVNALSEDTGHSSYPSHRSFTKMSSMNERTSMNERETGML

washed platelets = assay: Chemerin release from washed platelets; assay type: cell-based, human; conditions: 37 °C for 3 min; thrombin receptor-activating peptide 20 μM, collagen 10 μg/ml, ADP 10 μM; Fig. 6C
Human plasmin = assay: plasmin; conditions: 37°, up to 30 min
plasmin followed by CPB = assay: plasmin; conditions: human, 37 °C, up to 30 min plasmin, then 30 min CPB
plasmin followed by CPN = assay: plasmin; conditions: 37 °C, up to 30 min plasmin, then 30 min CPN

Row | Molecule | Km (CPB (TAFIa)) [µM] | kcat (CPB (TAFIa)) [s⁻¹] | kcat/Km (CPB (TAFIa)) [M⁻¹ s⁻¹] | Km (CPN) [µM] | kcat (CPN) [s⁻¹] | kcat/Km (CPN) [M⁻¹ s⁻¹] | also measured
1 | NH2-ADPELTEAQ...FAFSKALPRSPHHHHHH-COOH |  |  |  |  |  |  | fragment found (Elastase): ...YFPGQFAFS (21-157) and ...YFPGQFA (21-155) and ...YFPG (21-152); fragment found (Staphopain B): ...YFPGQFAFS (21-157); fragment found (Cathepsin G): ...YFPGQFAF (21-156); fragment found (plasmin): NH2-YFPGQFAFSK-COOH form (21-158); fragment found (Tryptase): ...YFPGQFAFSK (21-158) and ...YFPGQFA (21-155)
2 | C5a^66-74: comparison substrate peptide derived from C5a (SHKDMQLGR; C5a anaphylatoxin; UniProt P01031 743-751, looked up, fragment) | 219 ± 16.2 | 29.5 ± 0.7 | 130000 | 602 ± 74.3 | 9.3 ± 0.4 | 15000 | 
3 | N=C(N)NCCSCC(CS)C(=O)O (racemic) [MGTA, DL-2-Mercaptomethyl-3 guanidinoethylthiopropanoic acid] |  |  |  |  |  |  | effect on PPP-induced increase of bioactivity of plasmin-cleaved prochemerin (human CMKLR1; MGTA 5 μM in PPP, treated prochemerin 0.2 nM, Fig. 4B): inhibited
4 | collagen |  |  |  |  |  |  | release of chemerin from washed platelets (washed platelets): induced the release of chemerin
5 | YFPGQFAFSKALPRS |  |  |  |  |  |  | fragment found (Human plasmin): 10-mer (YFPGQFAFSK); fragment found (plasmin followed by CPB): 9-mer (YFPGQFAFS); fragment found (plasmin followed by CPN): 9-mer (YFPGQFAFS)
6 | Bradykinin (RPPGFSPFR; Bradykinin; UniProt P01042 381-389, looked up) | 70.6 ± 4.8 | 19.7 ± 4.8 | 280000 | 303 ± 29.1 | 9.1 ± 0.2 | 30000 | 
7 | thrombin |  |  |  |  |  |  | chemerin activities of PPP after addition of thrombin (human CMKLR1; thrombin 5 units/ml added to PPP, 37 °C 5 min, Fig. 6B): had no effect; chemotaxis of CMKLR1-transfected cells (human CMKLR1; thrombin itself): did not induce the chemotaxis
8 | C3a^69-77: comparison substrate peptide derived from C3a (RASHLGLAR; C3a anaphylatoxin; UniProt P01024 740-748, looked up, fragment) | 35.9 ± 6.6 | 8.4 ± 0.6 | 230000 | 77.1 ± 11.2 | 57.9 ± 2.1 | 750000 | 
9 | B1 |  |  |  |  |  |  | CMKLR1-mediated chemotaxis after treatment with CPN and CPB alone (human CMKLR1; data not shown): did not induce CMKLR1-mediated chemotaxis; chemotactic activity after sequential treatment with plasmin and CPN or CPB (human CMKLR1; plasmin 1 μM, CPN or CPB 30 nM, final chemerin concentration 0.5 nM, Fig. 3B): dramatically enhanced; chemotactic bioactivity after plasmin alone (human CMKLR1; prochemerin activation by plasmin, dose-response, Fig. 3A): increased its chemotactic bioactivity
